± gives the standard deviation of the averaged measurements.
System: Saccharomyces cerevisiae
Assay: protein stability index of tFT-peptide fusion (C-terminal peptide) (PSI (0-1 scale)); higher = more stable (slower turnover)
Settings: genetic background: wild type; temperature: 30 C
Experimental: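 Multiplexed protein stability (MPS) profiling in S. cerevisiae. Random 12-aa peptides (tFT-X12 library) are fused to the C-terminus of a sfGFP-mCherry tandem fluorescent timer, after mCherry and a GGGS linker. Cells are FACS-sorted into 8 mCherry/sfGFP bins and deep-sequenced. The protein stability index (PSI) is the read-weighted bin average, scaled from 0 (unstable) to 1 (stable). Only peptides with >10 reads are reported; cells were grown at 30 °C in SC-His with glucose.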
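Note: PSI is a weighted mean of sequencing reads over stability bins, variants kept only with over 10 reads, mCherry proximal and sfGFP distal, peptide attached via GGGS linker.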

## EWRWCESKIITV
  protein stability index: 0.625 ± 0.028

## VALFIRITKHEY
  protein stability index: 0.549 ± 0.027

## VGRRDNHPTEKT
  protein stability index: 0.73 ± 0.025

## TTRTAAKKIHKD
  protein stability index: 0.74 ± 0.055

## PASSAPLSLLPC
  protein stability index: 0.655 ± 0.084

## FQGSDCLYFGLL
  protein stability index: 0.741 ± 0.043

## PSLLPPATLLPI
  protein stability index: 0.718 ± 0.072

## PPTGHAPSRALT
  protein stability index: 0.676 ± 0.091

## AKKAEKQKKEKT
  protein stability index: 0.82 ± 0.019

## MGTRRVGRQGWG
  protein stability index: 0.708 ± 0.031

## QKKNSPIPTNKN
  protein stability index: 0.695 ± 0.04

## GRSAVVMCFHAG
  protein stability index: 0.697 ± 0.018

## QQTSGVQERICL
  protein stability index: 0.744 ± 0.07

## GGVSRSRNTRWN
  protein stability index: 0.677 ± 0.026

## KKKKKKKIRKKI
  protein stability index: 0.682 ± 0.029

## VIARALGLFLSD
  protein stability index: 0.693 ± 0.035

## FSGFRFFLLWPW
  protein stability index: 0.678 ± 0.085

## AIIERVEQIVTA
  protein stability index: 0.522 ± 0.052

## SNFCIWRWWLGF
  protein stability index: 0.6858 ± 0.0014

## QSHALSLRKGMP
  protein stability index: 0.681 ± 0.052

## QKNKKRQTTYES
  protein stability index: 0.662 ± 0.0069

## YSLETGIFVFHR
  protein stability index: 0.7027 ± 0.0068

## LLATCGAIHTFC
  protein stability index: 0.637 ± 0.01

## GVGGFPSRLVGG
  protein stability index: 0.69 ± 0.043

## QNKKEKRHKTKT
  protein stability index: 0.648 ± 0.02

## DRPWAGGGLGVC
  protein stability index: 0.621 ± 0.081

## PPPPPLPHPVPP
  protein stability index: 0.6206 ± 0.005

## VAVGLGRAVFGV
  protein stability index: 0.611 ± 0.034

## HWRWGGRSGGDR
  protein stability index: 0.707 ± 0.013

## SCIFRGNPFLLL
  protein stability index: 0.711 ± 0.018

## PPPLFPPSSLLP
  protein stability index: 0.706 ± 0.033

## PPPPLRSPPRSF
  protein stability index: 0.713 ± 0.02

## SLVTGRGFKVYR
  protein stability index: 0.681 ± 0.05

## STLAPRVYLRLR
  protein stability index: 0.676 ± 0.032

## PSPLPGYFFTLS
  protein stability index: 0.627 ± 0.12

## SGVGCGRSRWVW
  protein stability index: 0.626 ± 0.029

## RKDKKKKGSKEE
  protein stability index: 0.69 ± 0.046

## SCTDIGWIMRDI
  protein stability index: 0.673 ± 0.061

## LPVPLAAFTTLH
  protein stability index: 0.711 ± 0.084

## CWASTFGLGFLP
  protein stability index: 0.757 ± 0.0022

## YLSFDKSLLSQI
  protein stability index: 0.662 ± 0.029

## RHSSRYLIEFDN
  protein stability index: 0.744 ± 0.03

## ITGLRNSRFNRP
  protein stability index: 0.652 ± 0.0068

## YLGRDYYVVLWG
  protein stability index: 0.7506 ± 0.0045

## THYKLFGSLNLL
  protein stability index: 0.634 ± 0.035

## NKKKNKKKNKKK
  protein stability index: 0.676 ± 0.032

## VWGQGTPFRVVM
  protein stability index: 0.655 ± 0.091

## CWGAGPRLVRVW
  protein stability index: 0.4998 ± 0.00039

## CGWLTCSAGFCA
  protein stability index: 0.726 ± 0.11

## LRKCVKAECKSQ
  protein stability index: 0.684 ± 0.037

## RIINRATIIIKL
  protein stability index: 0.564 ± 0.0065

## LEFEIYHSECTV
  protein stability index: 0.685 ± 0.088

## FFSMVFVFGFRA
  protein stability index: 0.5 ± 0.015

## KGDAQASSDLTL
  protein stability index: 0.691 ± 0.014

## KRGVVGFGKGGG
  protein stability index: 0.6654 ± 0.0027

## PPPSPPTAPAAP
  protein stability index: 0.713 ± 0.038

## GDDCQYLVVPVR
  protein stability index: 0.701 ± 0.052

## TGLYLRCVWGVQ
  protein stability index: 0.507 ± 0.046

## RACVCPCHPHRY
  protein stability index: 0.737 ± 0.025

## TEIKILNKKKSR
  protein stability index: 0.7294 ± 0.0043

## LHHPPAPPLPPP
  protein stability index: 0.695 ± 0.018

## LGTVPLLPPRSP
  protein stability index: 0.713 ± 0.028

## EIIEINNVKRIK
  protein stability index: 0.6835 ± 0.0049

## RWVGWGAWLSEV
  protein stability index: 0.611 ± 0.02

## SSVVPITLPAFL
  protein stability index: 0.707 ± 0.019

## VRKKGKKKKKDK
  protein stability index: 0.678 ± 0.031

## CVSSALRVPGRE
  protein stability index: 0.699 ± 0.027

## INKKKKEKKKVE
  protein stability index: 0.731 ± 0.023

## GSSTINRVDLKR
  protein stability index: 0.662 ± 0.015

## PSPPPSSPPPRS
  protein stability index: 0.686 ± 0.051

## STQGAFHFLVSL
  protein stability index: 0.679 ± 0.015

## VGLRPPRPAPPS
  protein stability index: 0.623 ± 0.035

## RFGLIFTSPHPL
  protein stability index: 0.63 ± 0.013

## SWPLIFSLPNFI
  protein stability index: 0.716 ± 0.026

## PPLPPSPRLLPP
  protein stability index: 0.635 ± 0.056

## VGEVLCVGGAFY
  protein stability index: 0.659 ± 0.024

## GIVGLFSALSLL
  protein stability index: 0.706 ± 0.1

## RKVTQSKQGKKR
  protein stability index: 0.722 ± 0.0093

## SGVVGLSTSGVV
  protein stability index: 0.695 ± 0.063

## KRKAQEVNSKKK
  protein stability index: 0.703 ± 0.011

## AHGRFTISLAGL
  protein stability index: 0.743 ± 0.057

From the supplement of paper PMC10724198
